Assay: yeast display, Sf9 membrane polyspecificity reagent, FACS + sequencing; frameworks hold sequencing errors
Outline: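 In a synthetic yeast display library (Saccharomyces cerevisiae BJ5465), nanobody expression was induced with galactose for 36–48 hours. FACS gates were set low and high (top ~1%) using anti-HA fluorescence for expression and streptavidin fluorescence for binding of the Sf9 membrane reagent. Each polyreactivity label is drawn from the gate of origin.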

Sequence	polyreactivity (PSR sort gate)
QVQLVESGGGLVQAGGSLRLSCAASGSIFDFNALGWYRQAPGKERELVAAITYSGGRTYYADSVKGRFTISRDNGKYTVYLQMNSMKPEDTAVFYCAVNSFSGHGDYWGQGTQVTVSS	low polyreactivity
QVQLVESGGGLVQAGGSLRLSCAASGSTSPGYAMGWYRQAPWKERELVAAITFRGTRTYYADSVKGRFTISRDNSKNTVYLQMNSLKPEDTEVYYCNVVGYGPNRGRVDYWGQGTLVTVSS	high polyreactivity
QVQLVESGGGLVQAGGSLRLSCAASGSTFYWNVMGWYRQAPGKERELVAAINRSDGSTYYADSVKGRFTISRDNAKNTVYLQMNSLKPEDTAVYFCNAVTKHPQSVPYAYGYWGQGTQVTVSS	high polyreactivity
QVQLVESGGGLVQAGGSLRLSCAASGSIFSFNAKGWYRQAPGKERELVAAITTSGGSTYYADSVKGRFTISRDNAKNTVYLQMNSLKPEDTAVYYCAAVRPDNSLYEPMDYWGQGTQVTVSS	low polyreactivity
QVQLVESGGGLVQAGGSLRLSCAASGSIFCRNAMGWYRQAPGKERELVAAITSGGTTNYADSVKGRFTISRDNAKNSVYLQMNSLKPEDTAVYYCATRASYLRRYDHPHSDVDYWGQGTQVTVSS	low polyreactivity
QVQLVESGGGLVQAGGSLRLSCAASGRTFTRYVMGWYRQAPGKESELVAVISSGGRTYYADSVKGRFTISRDNAKNTVYLQMNSLKPEDTAVYYCAAVTHPAWAVEYDYWGQGTQVTVSS	high polyreactivity
QVQLVETGGGLVQAGGSLRLSSAASGSTFRDYDMGWYRQARGKERELVAAISLSGGRTHYADSVKGRFTISRDNAKNTVYLQMNSLKPEDTAVYYCAARNSGPVQYYYWGQGTHVTVSS	low polyreactivity
QVQLVESGGGLVQAGGSLRLSCAASGFIFAYYAMGWYRQAPGKERELVAAISKRGGSTYYADSVKGRFTISRDNAKNTVYLQMNSLKPEDTAVYYCAADGHGGYGYWGQGTQVTVSS	high polyreactivity
QVQLVESGGGLVQAGGSLRLSCAASGSTFVGNAMGWYRQAPGKERELVAGISSGGSSNYADSVKGRFTISRDNAKNTVYLQMNSLKREDTAVYYCNAVPGVGEMDYWGQGTQVTVSS	low polyreactivity
QVQLVESGGGLVQAGGSLRLSCAASGLTFSVNAMGWYRQAPGKERELVAAINYGGGSTYYADSVKGRFTISRDNAKNTVYLQMNSLKPEDTAVYYCAAVPYPRGKGYDYWGQGTQVTVSS	high polyreactivity
QVQLVGSGGGLVQAGGSLRLSCAASGRTFDRNTMGWYRQAPGKERELVAAISSSGGSTYYADSVKGRFTISRDNAKNTVYLQMNSLKPEDTAVYYCAVLSRQYFRYGYDYWGQGTQVTVSS	high polyreactivity
QVQLVESGGGLVQAGGSLRLSCAASGSIFEYNTMGWYRQAPGKERELVATISWSGDSTYYADSVKGRFTISRDNAKNTVYLQMNSLKPEDTAVYYCAAQRGAPVDGKSDYWGQGTQVIVSS	low polyreactivity
QVQLVESAGGLVQAGGILRLSCAASGGIFRGYAMGWYRQAPGKERELVATIRSSGRTNYADSVKGRFTISRDNAKNTVYLQMNSLKPEDTAVYYCNKRRWWQYDRWGDWVLGGDDYWGQGTQVTVSS	low polyreactivity
QVQLVESGGGLVQAGGSLRLSCAASGSTLYWYAMGWYRQAPGKERELVAAITSGGNTYYADSVKGRFTISRDNAKNTVYLQMNSLKPEDTAVSYCAVGSFGVSAYSYYYWGQGTQVTVSS	low polyreactivity
QVQLVESGGGIVQAGGSLRLSCAASGPTFYLYDTMGWYRQAPGKERELVAAISWDDGDTYYADSVKGRFTISRDNAKNTVYLQMNSLKPEDTAVYYCAAESLSGAHGYWGQGTQVTVSS	low polyreactivity
QVQLVESGGGLVQAGGSLRLSCAASGSIFETYVMGWYRQAPGKERELVAAINSGGSTNYADSVKGRFTISRDNAKNTVYLQMNSLKPEDTAVYYCAAEWRGDRYRLYVVSWWYDYWGQGTQVTVSS	low polyreactivity
QVQLVESGGGLVQAGCSLRLSCAASGITFTEYAMGWSRQAPGKERELGATISYGGGITYYADSVKGRFTISRDNAKNTVYLQMNSLKPEDTAVYYCAADGLSQVQRGMDYWGQGTQVTVSS	low polyreactivity
